Reference: patent publication US10781452B2, “FLT3 receptor antagonists for the treatment or the prevention of pain disorders” (INSTITUT NATIONAL DE LA SANTE ET DE LA RECHERCHE MEDICALE …, priority 2010, dated 2020)

Target: T1, full-length mFLT3 (Mus musculus, UniProt Q00342)
T1 construct: host or cells: HEK293T
T1 sequence (Q00342 28-1000): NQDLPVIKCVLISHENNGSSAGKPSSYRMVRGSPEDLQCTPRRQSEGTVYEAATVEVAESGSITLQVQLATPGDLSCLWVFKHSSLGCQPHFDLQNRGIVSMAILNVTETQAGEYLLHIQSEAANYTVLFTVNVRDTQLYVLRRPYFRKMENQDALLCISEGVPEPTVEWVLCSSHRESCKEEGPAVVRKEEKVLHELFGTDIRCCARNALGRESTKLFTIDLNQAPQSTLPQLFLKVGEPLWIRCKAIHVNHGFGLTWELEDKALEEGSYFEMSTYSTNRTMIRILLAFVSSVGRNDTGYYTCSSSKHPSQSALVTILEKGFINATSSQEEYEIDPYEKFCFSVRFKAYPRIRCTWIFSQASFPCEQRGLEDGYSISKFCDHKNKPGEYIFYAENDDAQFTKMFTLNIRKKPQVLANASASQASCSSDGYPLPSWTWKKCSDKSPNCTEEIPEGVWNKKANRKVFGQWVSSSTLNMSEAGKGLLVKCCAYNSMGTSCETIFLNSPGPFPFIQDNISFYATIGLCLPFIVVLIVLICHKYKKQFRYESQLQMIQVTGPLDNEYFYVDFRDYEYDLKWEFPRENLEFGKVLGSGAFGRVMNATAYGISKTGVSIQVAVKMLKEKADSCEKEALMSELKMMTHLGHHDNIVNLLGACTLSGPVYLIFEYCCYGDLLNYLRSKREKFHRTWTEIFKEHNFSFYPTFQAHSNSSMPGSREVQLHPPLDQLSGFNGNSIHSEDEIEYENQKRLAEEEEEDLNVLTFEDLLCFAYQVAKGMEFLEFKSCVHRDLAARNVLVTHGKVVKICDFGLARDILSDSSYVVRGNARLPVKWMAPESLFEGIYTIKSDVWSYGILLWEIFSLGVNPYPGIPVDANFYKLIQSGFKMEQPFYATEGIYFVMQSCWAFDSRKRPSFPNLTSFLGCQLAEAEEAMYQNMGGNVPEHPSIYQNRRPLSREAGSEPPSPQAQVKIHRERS
Assay: TR-FRET displacement of Red-FL binding, HEK cells expressing full-length mFLT3
Conditions: HEK cells expressing full-length mFLT3, 0.5 nM Red-FL
Procedure: The binding of the A3 antibody to full-length hFLT3 and mFLT3 was measured by displacement of extracellular FL binding on recombinant HEK cells by using time-resolved fluorescence resonance energy transfer (TR-FRET).
Chemicals and reagents. The Tag-lite® labeling medium was from Cisbio Bioassays (Condolet, France). The Lumi4-Tb derivative of O6-Benzylguanine was synthesized by Cisbio Bioassays and is commercialized as SNAP-Lumi4-Tb (Cisbio Bioassays, Ref. SSNPTBE).
A recombinant rh-FLT3-L was produced as previously reported (Verstraete K, et al. Efficient production of bioactive recombinant human Flt3 ligand in E. coli. Protein J, 2009 28: 57-65) and labeled with a red fluorescent probe (Red-FL). Poly-L-ornithine (MW of 30,000-70,000 daltons) was from Sigma-Aldrich. The plasmids encoding for the SNAP tagged human FLT3 (pSNAP-hFLT3) or the mouse FLT3 (pSNAP-mFLT3) used for transient transfection was obtained from Cisbio Bioassays. Monoclonal antibodies against FLT3 (8F2) and phosphotyrosine FLT3 (PY969) were purchased from Cell Signaling Technology and labeled with Lumi4-Tb and d2 respectively, by Cisbio.
Cell culture. HEK293T cells, used for binding assays, were maintained in DMEM Glutamax (Invitrogen) supplemented with antibiotics (penicillin 50 U/ml, streptomycin 50 μg/ml) and 10% heat-inactivated Fetal Calf Serum.
Transfection procedures. […]

B1: A3 antibody: human monoclonal antibody against FLT3; VH SEQ ID NO:1, VL SEQ ID NO:2 (antibody, V domains shown)
VH: EVQLVESGGSLVKPGGSLRLSCAASGFTFSNSYMNWVRQAPGKGLEWISDISGSSRDIDYADFVKGRFTISRDNATNSLYLQMNSLRAEDTAVYYCVRSGNSGMDVWGRGTLVTVSS
VL: QSVLTQPASVSGSPGQSITISCAGTSSDVGGGYYVSWYQQHPGKAPKLMIYYDSYRPSGVSNRFSGSKSGNTASLTISGLQAEDEADYYCSSYTNNSTRVFGGGTKLEIK
modifications: Synthetic VH domain of A3; Synthetic VL region of A3
  IC50, displacement of FL binding: about 17 μg/ml
